Experimental findings from PMC11178795, “Hydrogen peroxide is required for light-induced stomatal opening across different plant species” (Nature Communications, 2024) are described below.

Assay [1] has as its target T1, GST-bZIP30 (Arabidopsis thaliana, UniProt Q9SIG8 1-519).
T1 construct: bZIP30 transcription factor, Arabidopsis, AT2G21230; full-length coding region without stop codon; destination vector pDEST15 (N-GST); source: Escherichia coli, purified (glutathione beads); not shown: GST, N-terminal, kept
T1 sequence (looked up): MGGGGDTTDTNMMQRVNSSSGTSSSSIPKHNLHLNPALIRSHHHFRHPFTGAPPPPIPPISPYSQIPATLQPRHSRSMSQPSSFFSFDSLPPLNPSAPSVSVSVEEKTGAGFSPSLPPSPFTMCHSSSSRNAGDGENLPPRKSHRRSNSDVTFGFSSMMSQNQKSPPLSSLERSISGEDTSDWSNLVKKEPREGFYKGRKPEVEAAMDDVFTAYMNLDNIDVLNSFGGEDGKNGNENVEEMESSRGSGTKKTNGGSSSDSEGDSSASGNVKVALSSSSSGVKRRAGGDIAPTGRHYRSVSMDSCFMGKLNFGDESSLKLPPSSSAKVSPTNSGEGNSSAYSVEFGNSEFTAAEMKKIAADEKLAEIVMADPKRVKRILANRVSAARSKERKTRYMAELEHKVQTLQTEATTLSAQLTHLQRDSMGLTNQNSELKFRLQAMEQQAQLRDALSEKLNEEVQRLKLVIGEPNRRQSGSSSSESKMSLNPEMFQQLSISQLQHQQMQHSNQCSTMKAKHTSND
Put plainly: pull-down; 1 μg GST fusion on glutathione beads incubated with 1 µg MBP or MBP fusion; 20 mM Tris-HCl pH 7.5, 100 mM NaCl, 1 mM EDTA; with or without 1 mM H2O2; room temperature; washes with 300 mM NaCl, 0.5% Triton X-100; anti-MBP immunoblot. As to conditions: both partners purified. For orientation: In western blotting, separated proteins are transferred to a membrane and probed.

The target of assay [2] is T2, GST-bZIP30 (Arabidopsis thaliana (Mouse-ear cress), UniProt Q9SIG8).
T2 chain: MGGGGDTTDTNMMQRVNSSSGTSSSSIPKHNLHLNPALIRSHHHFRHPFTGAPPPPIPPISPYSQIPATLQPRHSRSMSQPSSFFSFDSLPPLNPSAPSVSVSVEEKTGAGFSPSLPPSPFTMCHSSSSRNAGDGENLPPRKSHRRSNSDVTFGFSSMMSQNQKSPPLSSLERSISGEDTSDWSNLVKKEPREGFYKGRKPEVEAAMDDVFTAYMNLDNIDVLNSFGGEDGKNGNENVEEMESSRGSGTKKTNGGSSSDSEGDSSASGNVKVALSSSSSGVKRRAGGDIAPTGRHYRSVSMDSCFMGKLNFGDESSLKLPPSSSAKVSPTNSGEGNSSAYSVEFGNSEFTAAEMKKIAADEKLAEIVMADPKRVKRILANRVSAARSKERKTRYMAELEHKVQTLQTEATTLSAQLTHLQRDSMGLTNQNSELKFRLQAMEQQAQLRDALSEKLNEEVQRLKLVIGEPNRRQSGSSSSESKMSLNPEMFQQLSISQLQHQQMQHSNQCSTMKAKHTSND
Put plainly: GST pull-down; binding enhanced by 1 mM H2O2 (oxidation of BZR1, Cys63).

A further assay has as its target T3, MBP-bZIP30 (Arabidopsis thaliana, UniProt Q9SIG8 1-519).
T3 construct: bZIP30 transcription factor, Arabidopsis, AT2G21230; full-length coding region without stop codon; destination vector pMAL2CGW (N-MBP); source: Escherichia coli, purified (amylose resin); not shown: MBP, N-terminal, kept
T3 sequence (looked up): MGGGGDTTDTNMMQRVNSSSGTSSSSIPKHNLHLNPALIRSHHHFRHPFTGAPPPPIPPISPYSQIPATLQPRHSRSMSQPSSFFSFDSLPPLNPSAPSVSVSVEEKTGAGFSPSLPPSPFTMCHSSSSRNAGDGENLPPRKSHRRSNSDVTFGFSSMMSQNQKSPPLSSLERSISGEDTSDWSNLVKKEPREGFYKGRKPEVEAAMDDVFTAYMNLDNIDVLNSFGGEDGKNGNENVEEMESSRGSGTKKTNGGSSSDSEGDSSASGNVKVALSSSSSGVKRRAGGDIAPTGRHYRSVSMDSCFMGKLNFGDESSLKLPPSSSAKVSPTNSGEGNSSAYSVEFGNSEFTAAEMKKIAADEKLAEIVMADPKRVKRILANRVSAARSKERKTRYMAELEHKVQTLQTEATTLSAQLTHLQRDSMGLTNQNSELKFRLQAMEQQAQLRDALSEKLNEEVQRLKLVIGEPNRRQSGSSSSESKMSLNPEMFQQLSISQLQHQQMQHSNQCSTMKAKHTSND
Put plainly: pull-down; 1 μg GST fusion on glutathione beads incubated with 1 µg MBP or MBP fusion; 20 mM Tris-HCl pH 7.5, 100 mM NaCl, 1 mM EDTA; with or without 1 mM H2O2; room temperature; washes with 300 mM NaCl, 0.5% Triton X-100; anti-MBP immunoblot. The settings on record: both partners purified.

B1: MBP-KIN10 (enzyme, Arabidopsis thaliana, UniProt Q38997 1-512, looked up)
chain: MDGSGTGSRSGVESILPNYKLGRTLGIGSFGRVKIAEHALTGHKVAIKILNRRKIKNMEMEEKVRREIKILRLFMHPHIIRLYEVIETPTDIYLVMEYVNSGELFDYIVEKGRLQEDEARNFFQQIISGVEYCHRNMVVHRDLKPENLLLDSKCNVKIADFGLSNIMRDGHFLKTSCGSPNYAAPEVISGKLYAGPEVDVWSCGVILYALLCGTLPFDDENIPNLFKKIKGGIYTLPSHLSPGARDLIPRMLVVDPMKRVTIPEIRQHPWFQAHLPRYLAVPPPDTVQQAKKIDEEILQEVINMGFDRNHLIESLRNRTQNDGTVTYYLILDNRFRASSGYLGAEFQETMEGTPRMHPAESVASPVSHRLPGLMEYQGVGLRSQYPVERKWALGLQSRAHPREIMTEVLKALQDLNVCWKKIGHYNMKCRWVPNSSADGMLSNSMHDNNYFGDESSIIENEAAVKSPNVVKFEIQLYKTRDDKYLLDLQRVQGPQFLFLDLCAAFLAQLRVL
notes: KIN10, catalytic subunit of SnRK1, Arabidopsis, AT3G01090; full-length coding region without stop codon; destination vector pMAL2CGW (N-MBP); source: Escherichia coli, purified (amylose resin); not shown: MBP, N-terminal, kept
With B1, in the assay with GST-bZIP30 [1], the binding result is “binds”.

B2: MBP-BZR1 (natural protein, Arabidopsis thaliana, UniProt Q8S307 1-336, looked up)
chain: MTSDGATSTSAAAAAAAAAAARRKPSWRERENNRRRERRRRAVAAKIYTGLRAQGDYNLPKHCDNNEVLKALCVEAGWVVEEDGTTYRKGCKPLPGEIAGTSSRVTPYSSQNQSPLSSAFQSPIPSYQVSPSSSSFPSPSRGEPNNNMSSTFFPFLRNGGIPSSLPSLRISNSCPVTPPVSSPTSKNPKPLPNWESIAKQSMAIAKQSMASFNYPFYAVSAPASPTHRHQFHTPATIPECDESDSSTVDSGHWISFQKFAQQQPFSASMVPTSPTFNLVKPAPQQMSPNTAAFQEIGQSSEFKFENSQVKPWEGERIHDVGMEDLELTLGNGKARG
notes: BRASSINAZOLE-RESISTANT1 (BZR1), Arabidopsis, AT1G75080; full-length coding region without stop codon; destination vector pMAL2CGW (N-MBP); source: Escherichia coli, purified (amylose resin); not shown: MBP, N-terminal, kept
As to B2, the binding result in the assay with GST-bZIP30 [1] and with GST-bZIP30 [2] was “binds” throughout.

B3: GST-BZR1 (natural protein, Arabidopsis thaliana, UniProt Q8S307 1-336, looked up)
chain: MTSDGATSTSAAAAAAAAAAARRKPSWRERENNRRRERRRRAVAAKIYTGLRAQGDYNLPKHCDNNEVLKALCVEAGWVVEEDGTTYRKGCKPLPGEIAGTSSRVTPYSSQNQSPLSSAFQSPIPSYQVSPSSSSFPSPSRGEPNNNMSSTFFPFLRNGGIPSSLPSLRISNSCPVTPPVSSPTSKNPKPLPNWESIAKQSMAIAKQSMASFNYPFYAVSAPASPTHRHQFHTPATIPECDESDSSTVDSGHWISFQKFAQQQPFSASMVPTSPTFNLVKPAPQQMSPNTAAFQEIGQSSEFKFENSQVKPWEGERIHDVGMEDLELTLGNGKARG
notes: BRASSINAZOLE-RESISTANT1 (BZR1), Arabidopsis, AT1G75080; full-length coding region without stop codon; destination vector pDEST15 (N-GST); source: Escherichia coli, purified (glutathione beads); not shown: GST, N-terminal, kept
For B3, the binding result with MBP-bZIP30 is given as “binds”.
